According to patent US20220227830A1, “QD DOSING OF GIP RECEPTOR AGONIST PEPTIDE COMPOUNDS AND USES THEREOF” (Takeda Pharmaceutical Company Limited, priority 2020, published 2022):
Starred links: 1 amine or outer side, 2 acyl side, 3 side chain; linkers in the order of their positions; H or OH if unused. Non-standard residues stand in square brackets, D forms with d. Groups on a side chain read outwards from the residue. No end group written: not given here. *: point of attachment. C15 diacid = O=C(O)CCCCCCCCCCCCCC(=O)*; γGlu = O=C(O)[C@H](CCC(=O)[*:2])N[*:1]; NMeY = CN[C@@H](Cc1ccc(O)cc1)C(=O)O; AEEA = NCCOCCOCC(=O)O; Aib = CC(C)(N)C(=O)O

T1: full-length human GIPR with an N-terminal FLAG tag (human, UniProt P48546 22-466)
T1 sequence (looked up): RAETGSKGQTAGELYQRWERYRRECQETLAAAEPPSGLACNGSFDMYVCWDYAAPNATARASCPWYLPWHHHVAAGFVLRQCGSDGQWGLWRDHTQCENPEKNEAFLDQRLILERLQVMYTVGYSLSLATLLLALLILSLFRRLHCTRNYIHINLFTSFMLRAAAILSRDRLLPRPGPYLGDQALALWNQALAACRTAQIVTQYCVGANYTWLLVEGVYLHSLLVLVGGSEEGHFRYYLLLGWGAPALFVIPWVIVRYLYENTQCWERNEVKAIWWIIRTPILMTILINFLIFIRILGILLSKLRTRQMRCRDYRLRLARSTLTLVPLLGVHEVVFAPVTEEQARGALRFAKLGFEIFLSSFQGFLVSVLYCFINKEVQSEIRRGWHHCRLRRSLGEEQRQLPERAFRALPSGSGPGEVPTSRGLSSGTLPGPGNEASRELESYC

B1: Compound 24 (peptide)
peptide: [NMeY][Aib]EGTFISDYSIALDR[Aib]AQ[Aib]K([AEEA-γGlu-γGlu-γGlu-C15 diacid])FVNWLLAQK-NH2
modifications: N-terminus assumed
SMILES: CC[C@H](C)[C@H](NC(=O)[C@H](CO)NC(=O)[C@H](Cc1ccc(O)cc1)NC(=O)[C@H](CC(=O)O)NC(=O)[C@H](CO)NC(=O)[C@@H](NC(=O)[C@H](Cc1ccccc1)NC(=O)[C@@H](NC(=O)CNC(=O)[C@H](CCC(=O)O)NC(=O)C(C)(C)NC(=O)[C@H](Cc1ccc(O)cc1)NC)[C@@H](C)O)[C@@H](C)CC)C(=O)N[C@@H](C)C(=O)N[C@@H](CC(C)C)C(=O)N[C@@H](CC(=O)O)C(=O)N[C@@H](CCCNC(=N)N)C(=O)NC(C)(C)C(=O)N[C@@H](C)C(=O)N[C@@H](CCC(N)=O)C(=O)NC(C)(C)C(=O)N[C@@H](CCCCNC(=O)COCCOCCNC(=O)CC[C@H](NC(=O)CC[C@H](NC(=O)CC[C@H](NC(=O)CCCCCCCCCCCCCC(=O)O)C(=O)O)C(=O)O)C(=O)O)C(=O)N[C@@H](Cc1ccccc1)C(=O)N[C@H](C(=O)N[C@@H](CC(N)=O)C(=O)N[C@@H](Cc1c[nH]c2ccccc12)C(=O)N[C@@H](CC(C)C)C(=O)N[C@@H](CC(C)C)C(=O)N[C@@H](C)C(=O)N[C@@H](CCC(N)=O)C(=O)N[C@@H](CCCCN)C(N)=O)C(C)C
B2: Compound 18 (peptide)
peptide: [NMeY][Aib]EGTFISDYSIAK([γGlu-γGlu-γGlu-C15 diacid])DR[Aib]AQ[Aib]NFVNWLLAQSPSSGAPPPS-NH2
modifications: N-terminus assumed
SMILES: CC[C@H](C)[C@H](NC(=O)[C@H](CO)NC(=O)[C@H](Cc1ccc(O)cc1)NC(=O)[C@H](CC(=O)O)NC(=O)[C@H](CO)NC(=O)[C@@H](NC(=O)[C@H](Cc1ccccc1)NC(=O)[C@@H](NC(=O)CNC(=O)[C@H](CCC(=O)O)NC(=O)C(C)(C)NC(=O)[C@H](Cc1ccc(O)cc1)NC)[C@@H](C)O)[C@@H](C)CC)C(=O)N[C@@H](C)C(=O)N[C@@H](CCCCNC(=O)CC[C@H](NC(=O)CC[C@H](NC(=O)CC[C@H](NC(=O)CCCCCCCCCCCCCC(=O)O)C(=O)O)C(=O)O)C(=O)O)C(=O)N[C@@H](CC(=O)O)C(=O)N[C@@H](CCCNC(=N)N)C(=O)NC(C)(C)C(=O)N[C@@H](C)C(=O)N[C@@H](CCC(N)=O)C(=O)NC(C)(C)C(=O)N[C@@H](CC(N)=O)C(=O)N[C@@H](Cc1ccccc1)C(=O)N[C@H](C(=O)N[C@@H](CC(N)=O)C(=O)N[C@@H](Cc1c[nH]c2ccccc12)C(=O)N[C@@H](CC(C)C)C(=O)N[C@@H](CC(C)C)C(=O)N[C@@H](C)C(=O)N[C@@H](CCC(N)=O)C(=O)N[C@@H](CO)C(=O)N1CCC[C@H]1C(=O)N[C@@H](CO)C(=O)N[C@@H](CO)C(=O)NCC(=O)N[C@@H](C)C(=O)N1CCC[C@H]1C(=O)N1CCC[C@H]1C(=O)N1CCC[C@H]1C(=O)N[C@@H](CO)C(N)=O)C(C)C
B3: Compound 22 (peptide)
peptide: [NMeY][Aib]EGTFISDYSIAK([AEEA-AEEA-γGlu-γGlu-C15 diacid])DR[Aib]AQ[Aib]NFVNWLLAQK-NH2
modifications: N-terminus assumed
SMILES: CC[C@H](C)[C@H](NC(=O)[C@H](CO)NC(=O)[C@H](Cc1ccc(O)cc1)NC(=O)[C@H](CC(=O)O)NC(=O)[C@H](CO)NC(=O)[C@@H](NC(=O)[C@H](Cc1ccccc1)NC(=O)[C@@H](NC(=O)CNC(=O)[C@H](CCC(=O)O)NC(=O)C(C)(C)NC(=O)[C@H](Cc1ccc(O)cc1)NC)[C@@H](C)O)[C@@H](C)CC)C(=O)N[C@@H](C)C(=O)N[C@@H](CCCCNC(=O)COCCOCCNC(=O)COCCOCCNC(=O)CC[C@H](NC(=O)CC[C@H](NC(=O)CCCCCCCCCCCCCC(=O)O)C(=O)O)C(=O)O)C(=O)N[C@@H](CC(=O)O)C(=O)N[C@@H](CCCNC(=N)N)C(=O)NC(C)(C)C(=O)N[C@@H](C)C(=O)N[C@@H](CCC(N)=O)C(=O)NC(C)(C)C(=O)N[C@@H](CC(N)=O)C(=O)N[C@@H](Cc1ccccc1)C(=O)N[C@H](C(=O)N[C@@H](CC(N)=O)C(=O)N[C@@H](Cc1c[nH]c2ccccc12)C(=O)N[C@@H](CC(C)C)C(=O)N[C@@H](CC(C)C)C(=O)N[C@@H](C)C(=O)N[C@@H](CCC(N)=O)C(=O)N[C@@H](CCCCN)C(N)=O)C(C)C
B4: Compound 30 (peptide)
peptide: [NMeY][Aib]EGTFISDYSIAK([Gly-Gly-Glu-Glu-Glu-C15 diacid])DR[Aib]AQ[Aib]NFVNWLLAQK-NH2
modifications: not fully specified
B5: Compound 29 (peptide)
peptide: [NMeY][Aib]EGTFISDYSIALDR[Aib]AQ[Aib]K([AEEA-γGlu-γGlu-γGlu-C15 diacid])FVNWLL[Aib]QK-NH2
modifications: N-terminus assumed
SMILES: CC[C@H](C)[C@H](NC(=O)[C@H](CO)NC(=O)[C@H](Cc1ccc(O)cc1)NC(=O)[C@H](CC(=O)O)NC(=O)[C@H](CO)NC(=O)[C@@H](NC(=O)[C@H](Cc1ccccc1)NC(=O)[C@@H](NC(=O)CNC(=O)[C@H](CCC(=O)O)NC(=O)C(C)(C)NC(=O)[C@H](Cc1ccc(O)cc1)NC)[C@@H](C)O)[C@@H](C)CC)C(=O)N[C@@H](C)C(=O)N[C@@H](CC(C)C)C(=O)N[C@@H](CC(=O)O)C(=O)N[C@@H](CCCNC(=N)N)C(=O)NC(C)(C)C(=O)N[C@@H](C)C(=O)N[C@@H](CCC(N)=O)C(=O)NC(C)(C)C(=O)N[C@@H](CCCCNC(=O)COCCOCCNC(=O)CC[C@H](NC(=O)CC[C@H](NC(=O)CC[C@H](NC(=O)CCCCCCCCCCCCCC(=O)O)C(=O)O)C(=O)O)C(=O)O)C(=O)N[C@@H](Cc1ccccc1)C(=O)N[C@H](C(=O)N[C@@H](CC(N)=O)C(=O)N[C@@H](Cc1c[nH]c2ccccc12)C(=O)N[C@@H](CC(C)C)C(=O)N[C@@H](CC(C)C)C(=O)NC(C)(C)C(=O)N[C@@H](CCC(N)=O)C(=O)N[C@@H](CCCCN)C(N)=O)C(C)C
B6: Compound 19 (peptide)
peptide: [NMeY][Aib]EGTFISDYSI[Aib]K([AEEA-AEEA-γGlu-γGlu-C15 diacid])DR[Aib]AQ[Aib]NFVNWLLAQRPSSGAPPPS-NH2
modifications: N-terminus assumed
SMILES: CC[C@H](C)[C@H](NC(=O)[C@H](Cc1ccccc1)NC(=O)[C@@H](NC(=O)CNC(=O)[C@H](CCC(=O)O)NC(=O)C(C)(C)NC(=O)[C@H](Cc1ccc(O)cc1)NC)[C@@H](C)O)C(=O)N[C@@H](CO)C(=O)N[C@@H](CC(=O)O)C(=O)N[C@@H](Cc1ccc(O)cc1)C(=O)N[C@@H](CO)C(=O)N[C@H](C(=O)NC(C)(C)C(=O)N[C@@H](CCCCNC(=O)COCCOCCNC(=O)COCCOCCNC(=O)CC[C@H](NC(=O)CC[C@H](NC(=O)CCCCCCCCCCCCCC(=O)O)C(=O)O)C(=O)O)C(=O)N[C@@H](CC(=O)O)C(=O)N[C@@H](CCCNC(=N)N)C(=O)NC(C)(C)C(=O)N[C@@H](C)C(=O)N[C@@H](CCC(N)=O)C(=O)NC(C)(C)C(=O)N[C@@H](CC(N)=O)C(=O)N[C@@H](Cc1ccccc1)C(=O)N[C@H](C(=O)N[C@@H](CC(N)=O)C(=O)N[C@@H](Cc1c[nH]c2ccccc12)C(=O)N[C@@H](CC(C)C)C(=O)N[C@@H](CC(C)C)C(=O)N[C@@H](C)C(=O)N[C@@H](CCC(N)=O)C(=O)N[C@@H](CCCNC(=N)N)C(=O)N1CCC[C@H]1C(=O)N[C@@H](CO)C(=O)N[C@@H](CO)C(=O)NCC(=O)N[C@@H](C)C(=O)N1CCC[C@H]1C(=O)N1CCC[C@H]1C(=O)N1CCC[C@H]1C(=O)N[C@@H](CO)C(N)=O)C(C)C)[C@@H](C)CC
B7: Compound 17 (peptide)
peptide: [NMeY][Aib]EGTFISDYSIALDR[Aib]K([AEEA-AEEA-γGlu-γGlu-C15 diacid])Q[Aib]NFVNWLLAQSPSSGAPPPS-NH2
modifications: N-terminus assumed
SMILES: CC[C@H](C)[C@H](NC(=O)[C@H](CO)NC(=O)[C@H](Cc1ccc(O)cc1)NC(=O)[C@H](CC(=O)O)NC(=O)[C@H](CO)NC(=O)[C@@H](NC(=O)[C@H](Cc1ccccc1)NC(=O)[C@@H](NC(=O)CNC(=O)[C@H](CCC(=O)O)NC(=O)C(C)(C)NC(=O)[C@H](Cc1ccc(O)cc1)NC)[C@@H](C)O)[C@@H](C)CC)C(=O)N[C@@H](C)C(=O)N[C@@H](CC(C)C)C(=O)N[C@@H](CC(=O)O)C(=O)N[C@@H](CCCNC(=N)N)C(=O)NC(C)(C)C(=O)N[C@@H](CCCCNC(=O)COCCOCCNC(=O)COCCOCCNC(=O)CC[C@H](NC(=O)CC[C@H](NC(=O)CCCCCCCCCCCCCC(=O)O)C(=O)O)C(=O)O)C(=O)N[C@@H](CCC(N)=O)C(=O)NC(C)(C)C(=O)N[C@@H](CC(N)=O)C(=O)N[C@@H](Cc1ccccc1)C(=O)N[C@H](C(=O)N[C@@H](CC(N)=O)C(=O)N[C@@H](Cc1c[nH]c2ccccc12)C(=O)N[C@@H](CC(C)C)C(=O)N[C@@H](CC(C)C)C(=O)N[C@@H](C)C(=O)N[C@@H](CCC(N)=O)C(=O)N[C@@H](CO)C(=O)N1CCC[C@H]1C(=O)N[C@@H](CO)C(=O)N[C@@H](CO)C(=O)NCC(=O)N[C@@H](C)C(=O)N1CCC[C@H]1C(=O)N1CCC[C@H]1C(=O)N1CCC[C@H]1C(=O)N[C@@H](CO)C(N)=O)C(C)C

Key:
[1] = target: human plasma proteins; assay: plasma protein binding, ultracentrifugation of spiked plasma, LC-MS/MS
[2] = target: dog plasma proteins; assay: as above
[3] = target: T1, full-length human GIPR with an …; assay: cell-based or functional assay
[4] = target: full-length human GLP-1R with an N-terminal FLAG tag (human, UniProt P43220 24-463); assay: cell-based or functional assay

Binder | Human PPB (Fu,plasma), fraction unbound (fraction unbound) [1] | Dog PPB (Fu,plasma), fraction unbound (fraction unbound) [2] | Human GIPR cAMP, HEK293T EC50 [3] | Human GLP1R cAMP HEK293T EC50 [4]
B1 | 0.0512 | – | – | –
B2 | 0.0588 | 0.0517 | – | –
B3 | 0.0413 | – | – | –
B4 | 0.0407 | – | – | –
B5 | 0.018 | – | 0.0001 nM | 47.1 nM
B6 | 0.0321 | 0.0361 | – | –
B7 | 0.064 | 0.0675 | – | –
